Laboratory results from publication PMC7271195, “CX3CL1 homo-oligomerization drives cell-to-cell adherence” (Scientific Reports, 2020).
“And” between values parts separate entries of the source, which are not always exact repeats. Identical values can stand only once. Values belong to the molecule of their own block, whether it stands above or below them. Ends that are not written are not given here.

Tests used:
[1] = biological target: TM24 peptide expressed as a EYFP fusion in COS cells; assay: FRAP; TM24 as EYFP fusion in live COS-7 cells, 37 °C; diffusion rate compared with membrane proteins of known number of TM domains
[2] = biological target: the molecule itself; assay: native gel or EMSA; plasma membranes of L_(CX3CL1) solubilised with CALX173ACE, CX3CL1 immuno-purified on anti-CX3CL1 beads, eluted by pH shock; clear native PAGE 4-15%, 4 °C, Western blot
[3] = biological target: the molecule itself; assay: single-molecule photobleaching TIRF; L_(CX3CL1) membrane preparation diluted in excess DOPC, spread on a coverslip; stepwise bleaching of EYFP, 126 particles
[4] = biological target: the molecule itself; assay: native gel or EMSA; L_(CX3CL1) cell lysate (40 µg total protein) solubilised in 1% DDM, NativePAGE Novex Bis Tris 3-12% gel, Western blot with anti-CX3CL1
[5] = biological target: the molecule itself; assay: SDS-PAGE without cross-linker; 0.4 mg/ml peptide in DPC micelles, no BS3; SDS-PAGE, silver stain
[6] = biological target: the molecule itself; assay: FRAP; FITC peptides in giant unilamellar vesicles of EggPC, 1000 lipids per peptide, PBS; lateral diffusion rate

- stoichiometry N [1]: 7
Molecule: TM24 peptide expressed as a EYFP fusion in COS cells (domain or fragment)

B1: CX3CL1-EYFP fusion protein (L929 cells stably expressing CX3CL1-YFP) (natural protein, UniProt P78423 25-397, looked up)
chain: QHHGVTKCNITCSKMTSKIPVALLIHYQQNQASCGKRAIILETRQHRLFCADPKEQWVKDAMQHLDRQAAALTRNGGTFEKQIGEVKPRTTPAAGGMDESVVLEPEATGESSSLEPTPSSQEAQRALGTSPELPTGVTGSSGTRLPPTPKAQDGGPVGTELFRVPPVSTAATWQSSAPHQPGPSLWAEAKTSEAPSTQDPSTQASTASSPAPEENAPSEGQRVWGQGQSPRPENSLEREEMGPVPAHTDAFQDWGPGSMAHVSVVPVSSEGTPSREPVASGSWTPKAEEPIHATMDPQRLGVLITPVPDAQAATRRQAVGLLAFLGLLFCLGVAMFTYQSLQGCPRKMAGEMAEGLRYIPRSCGSNSYVLVPV
- stoichiometry N [2]: 5
- stoichiometry N [3]: 4.3 and 3 to 7 (2×)
- stoichiometry N [4]: ~3

B2: TM24 peptide (transmembrane domain of CX3CL1 with two lysines at each end) (peptide)
peptide: KKVGLLAFLGLLFCLGVAMFTYKK
notes: two lysines added to ensure solubility; the 20 residues of the TM domain of CX3CL1; also called TM-CX3CL1 peptide; CX3CL1 transmembrane peptide; source: synthetic peptide
- stoichiometry N [5]: 2

B3: TM24-FITC (peptide)
peptide: KKVGLLAFLGLLFCLGVAMFTYKK
modifications: also: FITC, position not given here
notes: two lysines added to ensure solubility; the 20 residues of the TM domain of CX3CL1; also called TM24 conjugated with fluorescein; source: synthetic peptide
- binding result [6]: binds
